Measurements reported in US20090018070A1 (LABORATOIRES SERONO, published 2009).

B1: GNRT mutant FSH (Clone 10C, alpha GNRT / beta GM1) (ligand)
chain 1: not shown
chain 2: NSCELTNITIAIEKEECRFCISINTTWCAGYCYTRDLVYKDPARPKIQKTCTFKNLTYETVRVPGCAHHADSLYTYPVATQCHCGKCDSDSTDCTVRGLGPSYCSFGEMKE
B2: GNFT mutant FSH (Clone 11C, alpha GNFT / beta GM1) (ligand)
chain 1: not shown
chain 2: B1 chain 2

Target: T1, human FSH receptor (human, UniProt P23945 18-695)
T1 sequence (looked up): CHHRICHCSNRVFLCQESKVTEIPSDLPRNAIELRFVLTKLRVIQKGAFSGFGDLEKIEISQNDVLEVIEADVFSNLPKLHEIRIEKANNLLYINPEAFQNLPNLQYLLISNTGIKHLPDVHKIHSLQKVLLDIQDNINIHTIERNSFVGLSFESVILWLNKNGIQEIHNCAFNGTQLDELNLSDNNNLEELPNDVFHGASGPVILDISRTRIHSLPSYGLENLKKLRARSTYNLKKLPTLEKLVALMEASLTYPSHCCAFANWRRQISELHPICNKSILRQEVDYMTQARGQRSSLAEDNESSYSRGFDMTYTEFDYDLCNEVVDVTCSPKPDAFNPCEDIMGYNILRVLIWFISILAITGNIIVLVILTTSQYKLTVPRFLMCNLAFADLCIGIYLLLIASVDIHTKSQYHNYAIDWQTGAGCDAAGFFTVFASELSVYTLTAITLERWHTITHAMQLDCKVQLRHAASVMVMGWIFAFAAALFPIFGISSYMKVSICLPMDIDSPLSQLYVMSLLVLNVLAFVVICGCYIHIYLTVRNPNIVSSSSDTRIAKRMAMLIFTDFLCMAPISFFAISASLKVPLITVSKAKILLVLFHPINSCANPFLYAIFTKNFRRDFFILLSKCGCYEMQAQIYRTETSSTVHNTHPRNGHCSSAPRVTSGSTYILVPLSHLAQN
Assay: cell-based or functional assay

Binder | EC50 of cAMP production in CHO-FSHR cells
B1 | 0.258 nM
B2 | 0.278 nM
